Data as given in patent publication US20050287542A1 (YALE UNIVERSITY, published 2005).
Square brackets hold non-standard residues; d marks the D form. Primed or numbered codes have the meaning given here. Ends that are not written are not given here. * marks the point of attachment. acetamidofluorescein = acetamidofluorescein label attached to the side chain of a C-terminal cysteine residue (made by modifying the cysteine with 5-iodoacetamidofluorescein); acetamidofluorescein″ = acetamidofluorescein (5-iodoacetamidofluorescein attached to the C-terminal Cys); Fluorescein(5-NHCOCH2) = O=C(C*)Nc1ccc2c(c1)C(=O)OC21c2ccc(O)cc2Oc2cc(O)ccc21; pS = N[C@@H](COP(=O)(O)O)C(=O)O

Legend:
calmodulin (Sigma) [1] = assay: fluorescence polarization
[2] = target: T1, HisKIX (His-tagged CBP KIX domain) (UniProt P45481 586-672); assay: fluorescence polarization
T1 construct: range 586-672; not shown: amino-terminal hexahistidine tag of pET15b

calmodulin (Sigma) [3] = assay: fluorescence polarization; remark: listed apart in the source
Protocol: (§1) Binding reactions containing serially diluted target protein and 25-50 nM of fluorescein-labeled peptides (peptide^Flu) were incubated for 30 min at 25° C. Each point represents the average polarization of two to three independent samples; error bars denote standard error. […] Circular and triangular symbols indicate that HisKIX was used as the target protein; the symbols are colored as in FIG. 9 with the exception of the points for peptide C^U, which are in orange for clarity. Square symbols indicate that carbonic anhydrase was used as the target protein. […] Circular and triangular symbols indicate that HisKIX was used as the target protein, and the symbols are colored as in FIG. 9. Square symbols indicate that calmodulin was used as the target protein.

[4] = target: carbonic anhydrase II (Sigma); assay: fluorescence polarization
Protocol: as §1

[5] = target: T1, HisKIX (His-tagged CBP KIX domain); assay: fluorescence polarization; remark: listed apart in the source
Protocol: as §1

calmodulin (Sigma) [6] = assay: fluorescence polarization, calmodulin
Protocol: as §1

[7] = target: T1, HisKIX (His-tagged CBP KIX domain); assay: fluorescence polarization, HisKIX, 25 C
[8] = target: carbonic anhydrase II (Sigma); assay: fluorescence emission change of labelled peptide, PBS
calmodulin (Sigma) [9] = assay: fluorescence emission change of labelled peptide, HEPES/KCl/CaCl2 buffer
[10] = target: T1, HisKIX (His-tagged CBP KIX domain); assay: fluorescence polarization; end tied to the member by the Kd of Table 1
Protocol: 6) Fluorescence polarization—Fluorescence polarization experiments were performed with a Photon Technology International QuantaMaster C-60 spectrofluorimeter at 25° C. in a 1 cm pathlength Hellma cuvette. […] Briefly, an aliquot of fluorescently labeled peptide was added to a final concentration of 25-50 nM and the binding reaction was incubated for 30 min at 25° C. Thirty minutes was a sufficient length of time for the binding reaction to reach equilibrium, as judged by an absence of change in the observed polarization value of the sample with the highest HisKIX concentration over 1 h. […] For specificity measurements, carbonic anhydrase II (Sigma) or calmodulin (Sigma) was used as the target protein in place of HisKIX, and fluorescently labeled peptide was used at a final concentration of 50 nM. Carbonic anhydrase was serially diluted in binding buffer as described for HisKIX.
The polarization data were fit using Kaleidagraph v3.51 software to equilibrium binding equation (1), derived from first principles.

[11] = target: T1, HisKIX (His-tagged CBP KIX domain); assay: fluorescence polarization competition; displaces 25 nM fluorescein-labelled PPKID4^P from 1.5 µM HisKIX
[12] = target: T1, HisKIX (His-tagged CBP KIX domain); assay: fluorescence polarization competition; displaces 25 nM fluorescein-labelled PPKID6^U from 3.0 µM HisKIX
[13] = target: T1, HisKIX (His-tagged CBP KIX domain); assay: fluorescence polarization competition: 25 nM fluorescein-labelled PPKID4^P on 1.5 uM HisKIX, unlabelled KID-AB^P titrated
Protocol: Each point represents an average of three independent samples; the error bars denote standard error.
6) Fluorescence polarization—Fluorescence polarization experiments were performed with a Photon Technology International QuantaMaster C-60 spectrofluorimeter at 25° C. in a 1 cm pathlength Hellma cuvette. […] Briefly, an aliquot of fluorescently labeled peptide was added to a final concentration of 25-50 nM and the binding reaction was incubated for 30 min at 25° C. Thirty minutes was a sufficient length of time for the binding reaction to reach equilibrium, as judged by an absence of change in the observed polarization value of the sample with the highest HisKIX concentration over 1 h.

CBP KIX variant Y658A = target: T2, CBP KIX variant Y658A (UniProt P45481 586-665, limits assumed); assay: fluorescence polarization
T2 construct: domain: KIX

CBP KIX variant Y658F = target: T3, CBP KIX variant Y658F (UniProt P45481 586-665, limits assumed); assay: fluorescence polarization
T3 construct: domain: KIX

CBP KIX variant K662A = target: T4, CBP KIX variant K662A (UniProt P45481 586-665, limits assumed); assay: fluorescence polarization
T4 construct: domain: KIX

[14] = target: T5, CBP KIX variant Y650A (Example 20) (UniProt P45481 586-665, limits assumed); assay: fluorescence polarization
T5 construct: domain: KIX

CBP KIX variant L603A = target: T6, CBP KIX variant L603A (UniProt P45481 586-665, limits assumed); assay: fluorescence polarization
T6 construct: domain: KIX

[15] = target: T7, CBP KIX variant LL652-3AA (UniProt P45481 586-665, limits assumed); assay: fluorescence polarization
T7 construct: domain: KIX

CBP KIX variant K606A = target: T8, CBP KIX variant K606A (UniProt P45481 586-665, limits assumed); assay: fluorescence polarization
T8 construct: domain: KIX

CBP KIX variant I657A = target: T9, CBP KIX variant I657A (UniProt P45481 586-665, limits assumed); assay: fluorescence polarization
T9 construct: domain: KIX

CBP KIX variant L599A = target: T10, CBP KIX variant L599A (UniProt P45481 586-665, limits assumed); assay: fluorescence polarization
T10 construct: domain: KIX

CBP KIX variant Q661A = target: T11, CBP KIX variant Q661A (UniProt P45481 586-665, limits assumed); assay: fluorescence polarization
T11 construct: domain: KIX

CBP KIX variant E655A = target: T12, CBP KIX variant E655A (UniProt P45481 586-665, limits assumed); assay: fluorescence polarization
T12 construct: domain: KIX

CBP KIX variant I660A = target: T13, CBP KIX variant I660A (UniProt P45481 586-665, limits assumed); assay: fluorescence polarization
T13 construct: domain: KIX

[16] = target: carbonic anhydrase II (Sigma); assay: fluorescence polarization, carbonic anhydrase II
calmodulin (Sigma) [17] = assay: fluorescence polarization, calmodulin (text differs from Table 2)
Protocol: 6) Fluorescence polarization—Fluorescence polarization experiments were performed with a Photon Technology International QuantaMaster C-60 spectrofluorimeter at 25° C. in a 1 cm pathlength Hellma cuvette. […] Briefly, an aliquot of fluorescently labeled peptide was added to a final concentration of 25-50 nM and the binding reaction was incubated for 30 min at 25° C. Thirty minutes was a sufficient length of time for the binding reaction to reach equilibrium, as judged by an absence of change in the observed polarization value of the sample with the highest HisKIX concentration over 1 h. […] For specificity measurements, carbonic anhydrase II (Sigma) or calmodulin (Sigma) was used as the target protein in place of HisKIX, and fluorescently labeled peptide was used at a final concentration of 50 nM.

[18] = target: T14, wild type CBP KIX (Example 20) (UniProt P45481 586-665, limits assumed); assay: fluorescence polarization
T14 construct: domain: KIX

[19] = target: T15, GST-KIXY650A (Y650A variant of CBP KIX) (UniProt P45481 586-665, limits assumed); assay: fluorescence polarization
T15 construct: domain: KIX; not shown: GST tag
T15 sequence (P45481 586-665 Y650A limits assumed): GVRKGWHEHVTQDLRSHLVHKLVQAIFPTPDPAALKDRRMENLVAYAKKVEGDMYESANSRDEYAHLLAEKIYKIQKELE

T14 sequence (P45481 586-665 limits assumed): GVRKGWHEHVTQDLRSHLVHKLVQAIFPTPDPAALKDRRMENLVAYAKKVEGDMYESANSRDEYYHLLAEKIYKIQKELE
T1 sequence (P45481 586-672): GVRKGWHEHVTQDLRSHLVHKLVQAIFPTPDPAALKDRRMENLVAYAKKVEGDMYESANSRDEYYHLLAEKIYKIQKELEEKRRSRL
Chain of carbonic anhydrase II (Sigma) (P00921 2-260): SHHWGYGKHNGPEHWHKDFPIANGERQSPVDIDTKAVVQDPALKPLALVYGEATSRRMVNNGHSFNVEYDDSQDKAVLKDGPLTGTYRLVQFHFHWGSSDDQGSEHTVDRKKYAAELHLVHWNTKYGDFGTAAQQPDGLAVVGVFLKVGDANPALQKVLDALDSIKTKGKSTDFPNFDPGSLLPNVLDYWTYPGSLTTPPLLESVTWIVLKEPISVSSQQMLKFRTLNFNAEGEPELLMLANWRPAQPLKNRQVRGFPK
T5 sequence (P45481 586-665 Y650A limits assumed): as the sequence (P45481 586-665 Y650A limits assumed) above
T4 sequence (P45481 586-665 K662A limits assumed): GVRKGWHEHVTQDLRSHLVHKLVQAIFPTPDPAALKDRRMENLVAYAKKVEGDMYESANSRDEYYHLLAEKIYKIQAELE
T8 sequence (P45481 586-665 K606A limits assumed): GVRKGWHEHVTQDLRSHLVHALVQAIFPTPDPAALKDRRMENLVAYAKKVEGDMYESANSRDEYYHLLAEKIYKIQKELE
T3 sequence (P45481 586-665 Y658F limits assumed): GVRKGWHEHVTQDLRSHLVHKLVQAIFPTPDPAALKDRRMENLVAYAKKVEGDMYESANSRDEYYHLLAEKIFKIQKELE
T13 sequence (P45481 586-665 I660A limits assumed): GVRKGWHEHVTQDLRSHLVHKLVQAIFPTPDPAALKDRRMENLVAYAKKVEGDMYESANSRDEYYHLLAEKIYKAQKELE
T7 sequence (P45481 other isoform, or with tags, fused parts or gaps mutant limits assumed): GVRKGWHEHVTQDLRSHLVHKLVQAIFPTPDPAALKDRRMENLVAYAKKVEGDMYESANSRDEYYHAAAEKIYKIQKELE
T11 sequence (P45481 586-665 Q661A limits assumed): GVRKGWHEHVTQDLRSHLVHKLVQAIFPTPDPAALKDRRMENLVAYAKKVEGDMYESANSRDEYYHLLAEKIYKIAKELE
T9 sequence (P45481 586-665 I657A limits assumed): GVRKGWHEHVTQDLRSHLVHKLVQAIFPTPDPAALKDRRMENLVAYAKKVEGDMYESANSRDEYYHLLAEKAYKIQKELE
T12 sequence (P45481 586-665 E655A limits assumed): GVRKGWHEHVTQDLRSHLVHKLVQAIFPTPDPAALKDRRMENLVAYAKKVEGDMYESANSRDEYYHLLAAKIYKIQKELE
T6 sequence (P45481 586-665 L603A limits assumed): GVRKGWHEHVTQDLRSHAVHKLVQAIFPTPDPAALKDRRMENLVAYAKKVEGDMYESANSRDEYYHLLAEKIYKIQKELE
T10 sequence (P45481 586-665 L599A limits assumed): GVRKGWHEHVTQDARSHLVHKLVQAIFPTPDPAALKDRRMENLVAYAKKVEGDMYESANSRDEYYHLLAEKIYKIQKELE
T2 sequence (P45481 586-665 Y658A limits assumed): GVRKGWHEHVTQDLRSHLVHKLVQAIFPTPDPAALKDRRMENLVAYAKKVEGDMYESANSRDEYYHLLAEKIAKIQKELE

RRL[pS]FFYILLDLYLDAPGVC(acetamidofluorescein)-NH2 [peptide C^P (chimeric α-helical portion of the PPKID peptides, residues 15-33, phosphorylated)] was tested, and the “fold lower affinity than PPKID4^P” value (calmodulin (Sigma) [1]) was 4 fold, the “ΔΔG against KID-B^P” value [2] was -1.8 kcal/mol and the “Krel = Kd (CalM)/Kd (HisKIX)” value (calmodulin (Sigma) [3]) was 74. The “Krel = Kd (CA)/Kd (HisKIX)” value [4] was 40, the Kd [5] was 2.4 µM and the Kd (calmodulin (Sigma) [6]) was 178 µM. For the same binder, the Kd [7] was 2.4 µM.

Work on GQVGRQLAIIGDDINRYC(5‑iodoacetamidofluorescein)-NH2 (also called Bak BH3 peptide; Bak 72-94) [Bak peptide, fluorescein-labelled (Bak-flu)] yielded a Kd [8] of 22 µM and a Kd (calmodulin (Sigma) [9]) of 25 µM.

With GASDMTYWGDDAPVRRLSFFYILLDLYLDAPGVC(acetamidofluorescein″)-NH2 (designed binder, also called PPKID1 (unphosphorylated)) [PPKID1^U] the “ΔΔG against peptide C^U” value [10] was 0.1 kcal/mol.

GASPHTSSGDDAPVRRLSFFDILLDLYLDAPGVC(acetamidofluorescein″)-NH2 (designed binder, also called PPKID3 (unphosphorylated)) [PPKID3^U] was tested, and the “ΔΔG against peptide C^U” value [10] was -0.7 kcal/mol.

TDSQKRREILSRRP[pS]YRKILNDLSSDAPGVC-NH2 (also called CREB KID^P) [unlabeled KID-AB^P] was tested, and the IC50 [11] was 3.2 µM, the IC50 [12] was 2.4 µM and the “IC50 (read off the curve)” value [13] was ~3 µM.

B1: PPKID4^P (designed binder)
peptide: GPSQPTYPGDDAPVRRL[pS]FFYILLDLYLDAPGVC(acetamidofluorescein)-NH2
notes: also called PPKID4 (phosphorylated); wild type PPKID4^P
In the case of B1, the “ΔΔG against wild type CBP KIX” value (CBP KIX variant Y658A) is reported as 1.1 kcal/mol, the “ΔΔG against wild type CBP KIX” value (CBP KIX variant Y658F) is reported as 1.1 kcal/mol and the “ΔΔG against wild type CBP KIX” value (CBP KIX variant K662A) is reported as 1.1 kcal/mol. For the same binder, the “ΔΔG against wild type CBP KIX” value [14] was 0.95 kcal/mol, the “ΔΔG against wild type CBP KIX” value (CBP KIX variant L603A) was 1 kcal/mol and the “ΔΔG against wild type CBP KIX” value [15] was 0.93 kcal/mol. For the same binder, the “ΔΔG against wild type CBP KIX” value (CBP KIX variant K606A) was 0.97 kcal/mol, the “ΔΔG against wild type CBP KIX” value (CBP KIX variant I657A) was 0.89 kcal/mol and the “ΔΔG against wild type CBP KIX” value (CBP KIX variant L599A) was 0.58 kcal/mol. The “ΔΔG against wild type CBP KIX” value (CBP KIX variant Q661A) was 0.35 kcal/mol, the “ΔΔG against wild type CBP KIX” value (CBP KIX variant E655A) was -0.07 kcal/mol and the “ΔΔG against wild type CBP KIX” value (CBP KIX variant I660A) was 0.35 kcal/mol. For the same binder, the Kd (calmodulin (Sigma) [6]) was 52 µM, the Kd [16] was 106 µM and the Kd (calmodulin (Sigma) [17]) was 51 µM.

For H-GPSQPTYPGDDAPVRRA[pS]FFYILLDLYLDAPGVC(Fluorescein(5-NHCOCH2))-NH2 (designed binder) [PPKID4^P variant L17A], the “ΔΔG against wild type PPKID4^P” value [18] was 0.07 kcal/mol.

H-GPSQPTYPGDDAPVRRL[pS]FFYILADLYLDAPGVC(Fluorescein(5-NHCOCH2))-NH2 (designed binder) [PPKID4^P variant L24A] was tested, and the “ΔΔG against wild type PPKID4^P” value [18] was 0.38 kcal/mol.

With H-GPSQPTYAGDDAPVRRL[pS]FFYILLDLYLDAPGVC(Fluorescein(5-NHCOCH2))-NH2 (designed binder) [PPKID4^P variant P8A] the “ΔΔG against wild type PPKID4^P” value [18] was 0.33 kcal/mol.

For H-GPSQPTYPGDDAPVRRL[pS]FFYILLDLYADAPGVC(Fluorescein(5-NHCOCH2))-NH2 (designed binder) [PPKID4^P variant L28A], the “ΔΔG against wild type PPKID4^P” value [18] was 0.18 kcal/mol.

With H-GPSQATYPGDDAPVRRL[pS]FFYILLDLYLDAPGVC(Fluorescein(5-NHCOCH2))-NH2 (designed binder) [PPKID4^P variant P5A] the “ΔΔG against wild type PPKID4^P” value [18] was 0.3 kcal/mol.

H-GPSQPTYPGDDAPVRRL[pS]FAYILLDLYLDAPGVC(Fluorescein(5-NHCOCH2))-NH2 (designed binder) [PPKID4^P variant F20A] was tested, and the “ΔΔG against wild type PPKID4^P” value [18] was 0.85 kcal/mol.

With H-GASQPTYPGDDAPVRRL[pS]FFYILLDLYLDAPGVC(Fluorescein(5-NHCOCH2))-NH2 (designed binder) [PPKID4^P variant P2A] the “ΔΔG against wild type PPKID4^P” value [18] was 0.21 kcal/mol.

H-GPSQPTYPGDDAPVRRL[pS]FFYILLDLALDAPGVC(Fluorescein(5-NHCOCH2))-NH2 (designed binder) [PPKID4^P variant Y27A] was tested, and the “ΔΔG against wild type PPKID4^P” value [18] was 0.96 kcal/mol.

B2: p4099, fluorescein-labelled (designed binder)
peptide: GPSQPTYPGDDAPVEDLIRFVGRLLAYFGDTINRYC(5‑iodoacetamidofluorescein)-NH2
notes: p4121-flu tied to p4099 by order and mass difference only; also called p4099 (GAGT); p4121-flu
In the case of B2, the Kd [8] is reported as 8.6 µM and the Kd (calmodulin (Sigma) [9]) is reported as 25 µM.

For RRLSFFYILLDLYLDAPGVC(acetamidofluorescein)-NH2 [peptide C^U], the “ΔΔG against KID-B^U” value [2] was ≥ -1.5 kcal/mol and the “Krel = Kd (CA)/Kd (HisKIX)” value [4] was 3.

In the case of GISWPTFEGDDAPVRRLEFFYILLDLYLDAPGVC(acetamidofluorescein″)-NH2 (designed binder) [PPKID6 S18E], the “ΔΔG against PPKID6^U” value [2] is reported as 1.2 kcal/mol.

In the case of GISWPTFEGDDAPVRRL[pS]FFYILLDLYLDAPGVC(acetamidofluorescein″)-NH2 (designed binder, also called PPKID6 (phosphorylated)) [PPKID6^P], the ΔΔG upon phosphorylation [2] is reported as -0.5 kcal/mol.

With GISWPTFEGDDAPVRRLSFFYILLDLYLDAPGVC(acetamidofluorescein)-NH2 (designed binder, also called PPKID6 (unphosphorylated)) [PPKID6^U] the Kd [19] was 0.712 µM, the “Krel = Kd (CalM)/Kd (HisKIX)” value (calmodulin (Sigma) [3]) was > 112 and the “Krel = Kd (CA)/Kd (HisKIX)” value [4] was 53. The “ΔΔG against wild type CBP KIX” value (CBP KIX variant Y658A) was 0.68 kcal/mol, the “ΔΔG against wild type CBP KIX” value (CBP KIX variant Y658F) was 0.97 kcal/mol and the “ΔΔG against wild type CBP KIX” value (CBP KIX variant K662A) was 0.71 kcal/mol. For the same binder, the “ΔΔG against wild type CBP KIX” value [14] was 0.52 kcal/mol, the “ΔΔG against wild type CBP KIX” value (CBP KIX variant L603A) was 0.91 kcal/mol and the “ΔΔG against wild type CBP KIX” value [15] was -0.8 kcal/mol. For the same binder, the “ΔΔG against wild type CBP KIX” value (CBP KIX variant K606A) was 0.47 kcal/mol, the “ΔΔG against wild type CBP KIX” value (CBP KIX variant I657A) was 1.1 kcal/mol and the “ΔΔG against wild type CBP KIX” value (CBP KIX variant L599A) was 1.1 kcal/mol. For the same binder, the “ΔΔG against wild type CBP KIX” value (CBP KIX variant Q661A) was -0.16 kcal/mol, the “ΔΔG against wild type CBP KIX” value (CBP KIX variant E655A) was 0.68 kcal/mol and the “ΔΔG against wild type CBP KIX” value (CBP KIX variant I660A) was 1.4 kcal/mol. For the same binder, the Kd (calmodulin (Sigma) [6]) was > 168 µM and the Kd [16] was 79 µM.
